Laboratory results taken from patent publication US20240076386A1 (Pfizer, published 2024).

Legend:
[1] = molecular target: T1, human P-selectin expressed on CHO cells (human, UniProt P16109 42-830); assay: flow cytometry, CHO human P-selectin cells
T1 construct: whole, on cells; also called CHO-human P-selectin cells; CHO-P-selectin cells
T1 sequence (looked up): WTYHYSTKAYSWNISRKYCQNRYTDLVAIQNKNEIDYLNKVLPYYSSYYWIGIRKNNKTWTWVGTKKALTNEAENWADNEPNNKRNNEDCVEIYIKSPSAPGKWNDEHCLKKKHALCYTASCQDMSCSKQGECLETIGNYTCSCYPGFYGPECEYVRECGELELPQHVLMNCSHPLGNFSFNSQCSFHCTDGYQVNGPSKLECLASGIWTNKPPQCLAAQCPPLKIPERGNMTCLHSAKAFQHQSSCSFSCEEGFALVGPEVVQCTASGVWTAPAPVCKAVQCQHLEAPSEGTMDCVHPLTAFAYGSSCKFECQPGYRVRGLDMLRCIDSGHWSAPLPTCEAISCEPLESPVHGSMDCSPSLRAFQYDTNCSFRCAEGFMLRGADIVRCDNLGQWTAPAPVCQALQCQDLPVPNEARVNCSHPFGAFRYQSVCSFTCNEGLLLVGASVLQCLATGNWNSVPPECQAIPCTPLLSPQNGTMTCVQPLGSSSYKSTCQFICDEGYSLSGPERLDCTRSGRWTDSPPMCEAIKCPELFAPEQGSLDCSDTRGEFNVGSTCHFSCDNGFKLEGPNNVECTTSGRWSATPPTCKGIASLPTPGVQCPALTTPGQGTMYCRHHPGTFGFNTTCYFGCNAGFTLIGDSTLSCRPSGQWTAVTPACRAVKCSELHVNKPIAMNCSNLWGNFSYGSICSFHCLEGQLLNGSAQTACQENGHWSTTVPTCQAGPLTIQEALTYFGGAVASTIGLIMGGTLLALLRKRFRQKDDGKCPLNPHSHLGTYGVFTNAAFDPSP

[2] = molecular target: T2, cynomolgus monkey E-selectin, cell-surface expressed (cynomolgus monkey, UniProt P16581 22-610 (human entry)); assay: flow cytometry, CHO cells, 6 experiments
T2 construct: also called CHO-cynomolgus monkey E-selectin cells; cynomolgus monkey CHO-E
T2 chain: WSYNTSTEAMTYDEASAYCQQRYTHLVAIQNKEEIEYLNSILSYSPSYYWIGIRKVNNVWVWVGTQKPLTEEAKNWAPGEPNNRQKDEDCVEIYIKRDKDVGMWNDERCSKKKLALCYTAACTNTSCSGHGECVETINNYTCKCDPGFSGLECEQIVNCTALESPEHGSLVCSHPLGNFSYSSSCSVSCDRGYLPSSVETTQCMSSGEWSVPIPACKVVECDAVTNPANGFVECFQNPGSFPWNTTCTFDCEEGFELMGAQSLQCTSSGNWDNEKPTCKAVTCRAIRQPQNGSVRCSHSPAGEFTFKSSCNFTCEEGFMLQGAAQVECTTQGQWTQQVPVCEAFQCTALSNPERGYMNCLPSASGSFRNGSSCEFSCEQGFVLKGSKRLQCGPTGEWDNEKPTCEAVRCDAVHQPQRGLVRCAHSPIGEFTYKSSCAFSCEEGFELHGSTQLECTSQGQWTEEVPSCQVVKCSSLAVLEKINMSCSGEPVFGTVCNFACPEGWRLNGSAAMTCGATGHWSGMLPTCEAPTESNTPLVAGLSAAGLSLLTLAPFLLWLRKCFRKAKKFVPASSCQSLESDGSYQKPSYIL
Method: Binding studies with CHO cells were performed in duplicate using two rows of a 96-well round bottom plate, whereas, binding studies with primary endothelial cells were performed in a single row of a 96-well V-bottom plate. The plates were centrifuged at 300×g for 2 minutes at 4° C. and the cells were resuspended and blocked by incubation in the CHO buffer for 10 minutes on wet ice. After incubation, the cells were centrifuged at 300×g for 2 minutes at 4° C. to remove the buffer. […] After incubation with the antibody, the cells were washed three times by centrifugation at 300×g for 1 minute at 4° C. and resuspended in cold CHO buffer. The washed cells were resuspended and incubated with 100 μL of 1:1000 dilution of AlexaFluor647-conjugated goat anti-human F(ab′)₂ Fragment (Fcγ fragment specific antibody, [Jackson Innnnunoresearch, 109-606-170] for 45 minutes (CHO cells) or 30 minutes (endothelial cells) on wet ice. The cells were washed three or four times prior to resuspension in CHO buffer for flow cytometric analysis. A Becton Dickinson LSRFortessa instrument using 640 nanometer laser line was used to acquire cell fluorescence data. Geometric mean fluorescence of cells was analyzed by FlowJo software package (FlowJo, LLC) and plotted against antibody concentration. […]

- binding result [1]: no binding
- EC50 [2]: 0.75 to 1.37 nM
B1: optimized anti-E-selectin antibody 1444 (antibody, human IgG1, kappa, V domains shown)
VH: EVQLVESGGGLVQPGGSLRLSCAASGYAIRSAYMHWVRQAPGKGLEWVARIDPANGNTIYVDSVTGRFTISADNAKNSAYLQMNSLRAEDTAVYYCAMDLYSTSEYWGQGTLVTVSS
VL: DIQMTQSPSSLSASVGDRVTITCKTSQNIERYLNWYQQKPGKAPKLLIYAASSLQSGVPSRFSGSGSGTDFTLTISSLQPEDFATYFCLQDNAWPLTFGQGTKVEIKR
notes: effector-null human IgG1, kappa
